Assay results taken from patent US20030148958A1 (PROCTER AND GAMBLE, published 2003).
Ends that are not written are not given here.

Key:
[1] = biological target: T1, corticotropin releasing factor 2 receptor; experiment: cell-based or functional assay
T1 sequence (Q13324 whole entry, species assumed, looked up): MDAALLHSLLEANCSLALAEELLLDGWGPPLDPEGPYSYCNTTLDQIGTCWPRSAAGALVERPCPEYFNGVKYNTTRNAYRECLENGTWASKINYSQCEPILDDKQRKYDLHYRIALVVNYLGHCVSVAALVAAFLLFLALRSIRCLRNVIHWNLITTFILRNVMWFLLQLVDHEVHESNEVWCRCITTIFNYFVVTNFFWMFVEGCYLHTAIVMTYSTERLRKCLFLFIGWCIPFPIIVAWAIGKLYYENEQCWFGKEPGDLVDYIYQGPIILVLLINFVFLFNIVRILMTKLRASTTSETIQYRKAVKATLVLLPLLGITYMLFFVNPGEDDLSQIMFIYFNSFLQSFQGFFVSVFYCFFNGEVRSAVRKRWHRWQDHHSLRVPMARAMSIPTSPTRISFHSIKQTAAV

[2] = biological target: corticotropin releasing factor 1 receptor; experiment: cell-based or functional assay
Throughout, for CRF1R Emax: reference of the scale not given here.
Throughout, for CRF2R Emax: reference of the scale not given here.

| Binder | CRF2R EC50 [1] | CRF2R Emax [1] | CRF1R EC50 [2] | CRF1R Emax [2] |
| --- | --- | --- | --- | --- |
| SQEPPISLDLPLYLLREVLEMTKADQLAQQAHSNRKLLDIA-NH2 [SEQ ID NO 101] | 100 nM | 6.95% | 100 nM | 7.35% |
| IVLSLDVPIGLLQILLEQAKQRAAREQATTNARILARV-NH2 [SEQ ID NO 110] | 11 nM | 100% | > 100 nM | 9% |
| IVLSLDVPIGLLQILLEQERAEAAREQATTNARILARV-NH2 [SEQ ID NO 113] | 11.3 nM | 98% | > 100 nM | 4% |
| IVLSLDVPIGLLQILLEQTKARAAREQATTNARILARV-NH2 [SEQ ID NO 117] | 9.41 nM |  | 100 nM |  |
| IVLSLDVPIGLLQILLEQEKEKKRKETNARILARV-NH2 [SEQ ID NO 132] | 7.53 nM | 88% | > 100 nM | 8% |
| IVLSLDVPIGLLQILLEQARARAAREQATTQARILARV-NH2 [SEQ ID NO 9] | 100 nM | 34% | 100 nM | 10% |
| IVLSLDVPIGLLQILLEQAKQEAAREQATTNARILARV-NH2 [SEQ ID NO 124] | 3.49 nM | 94% | > 100 nM | 6% |
| IVLSLDVPIGLLQILLEQERQRAAREQATTNARILARV-NH2 [SEQ ID NO 111] | 10.9 nM | 99% | > 100 nM | 9% |
| IVLSLDVPIGLLQILLEQTKARAAREQATTNARILARV-NH2 [SEQ ID NO 129] | 3.83 nM |  | > 100 nM |  |
| IVLSLDVPIGLLQILLEQTRADAAREQATTNARILARV-NH2 [SEQ ID NO 126] | 13 nM | 91% | > 100 nM | 7% |
| SQEPPISLDLPFGLLREVLEMTKADQLAQQAHSNRKLLDIA-NH2 [SEQ ID NO 103] | 100 nM | 4.85% | 100 nM | 5.75% |
| IVLSLDVPIGLLQILLEQARQEAAREQATTNARILARV-NH2 [SEQ ID NO 123] | 3.49 nM | 93.8% | > 1000 nM | 9.6% |
| IVLSLDVPIGLLQILLEQAKAEAAREQATTNARILARV-NH2 [SEQ ID NO 112] | 12.3 nM | 100% | > 100 nM | 10% |
| SQEPPISLDLPFHLLREVLEMTKADQLAQQAHSNRKLLDIA-NH2 [SEQ ID NO 104] | 100 nM | 4.5% | 100 nM | 11.1% |
| IVLSLDVPIGLLQILLEQAKARAAREQATTNARILARV-NH2 [SEQ ID NO 109] | 11.8 nM |  | 100 nM |  |
| IVLSLEVPIGLLQILLEQARARAAREQATTNARILARV-NH2 [SEQ ID NO 120] | 69.9 nM | 100% | 100 nM | 7% |
| IVLSLDVPIGLLQILLEQARADAAREQATTNARILARV-NH2 [SEQ ID NO 130] | 8.57 nM | 92% | > 100 nM | 9% |
| IVLSLDVPIGLLQILLEQAKADAAREQATTNARILARV-NH2 [SEQ ID NO 131] | 5.25 nM | 91% | > 100 nM | 8% |
| IVLSLDVPIGLLQILLEQERARAAREQATTNARILARV-NH2 [SEQ ID NO 119] | 3.57 nM | 95% | > 100 nM | 3% |
